In US20200255836:

Target: Cas9 (His-Cas9) (Streptococcus pyogenes) (UniProt Q99ZW2)
Experiment: SPR
Conditions: Cas9 without guide; 20 mM Tris pH 8.0, 150 mM NaCl, 1 mM MgCl2

Chain of Cas9 (His-Cas9) (Streptococcus pyogenes) (Q99ZW2 whole entry): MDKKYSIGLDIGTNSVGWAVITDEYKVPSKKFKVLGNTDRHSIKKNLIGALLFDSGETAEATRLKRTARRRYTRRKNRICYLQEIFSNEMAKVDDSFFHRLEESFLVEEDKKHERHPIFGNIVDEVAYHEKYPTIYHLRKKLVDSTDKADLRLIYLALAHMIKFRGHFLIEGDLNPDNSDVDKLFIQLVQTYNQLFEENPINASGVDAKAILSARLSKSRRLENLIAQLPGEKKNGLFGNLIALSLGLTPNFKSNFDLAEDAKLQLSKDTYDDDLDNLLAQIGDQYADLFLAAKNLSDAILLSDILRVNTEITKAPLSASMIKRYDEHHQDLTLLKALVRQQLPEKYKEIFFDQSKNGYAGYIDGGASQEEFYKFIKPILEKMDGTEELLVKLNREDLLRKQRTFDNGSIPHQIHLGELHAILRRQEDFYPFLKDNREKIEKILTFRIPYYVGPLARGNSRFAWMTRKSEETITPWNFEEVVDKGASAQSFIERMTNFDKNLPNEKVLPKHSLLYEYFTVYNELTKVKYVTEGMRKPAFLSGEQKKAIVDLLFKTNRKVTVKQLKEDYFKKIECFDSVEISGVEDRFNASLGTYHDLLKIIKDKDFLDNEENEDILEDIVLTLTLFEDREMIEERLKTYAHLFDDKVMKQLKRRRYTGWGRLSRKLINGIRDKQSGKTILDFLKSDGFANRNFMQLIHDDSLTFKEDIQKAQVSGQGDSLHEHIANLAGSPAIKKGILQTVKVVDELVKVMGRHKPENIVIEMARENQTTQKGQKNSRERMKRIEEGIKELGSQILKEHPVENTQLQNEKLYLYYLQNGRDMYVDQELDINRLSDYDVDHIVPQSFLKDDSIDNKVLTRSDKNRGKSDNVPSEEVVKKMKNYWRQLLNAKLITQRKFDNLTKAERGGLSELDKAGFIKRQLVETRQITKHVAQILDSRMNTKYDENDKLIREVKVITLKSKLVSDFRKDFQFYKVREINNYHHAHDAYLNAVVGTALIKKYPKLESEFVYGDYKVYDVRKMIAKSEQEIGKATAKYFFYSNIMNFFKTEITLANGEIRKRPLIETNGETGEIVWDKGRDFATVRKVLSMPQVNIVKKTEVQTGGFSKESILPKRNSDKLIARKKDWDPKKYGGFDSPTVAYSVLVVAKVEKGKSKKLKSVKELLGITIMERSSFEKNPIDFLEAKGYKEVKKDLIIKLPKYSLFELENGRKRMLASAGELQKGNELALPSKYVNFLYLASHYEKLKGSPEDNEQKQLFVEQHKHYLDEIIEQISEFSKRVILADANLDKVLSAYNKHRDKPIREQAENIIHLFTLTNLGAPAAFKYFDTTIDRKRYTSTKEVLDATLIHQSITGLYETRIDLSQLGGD

Q: How did the Kd turn out when “GAGGCTCTCACATCGGTAACGGTGTGAGAGCCTC [Tetra]” was run?
A: 8.79 µM
